For the test, the target named is T1, 人CD20蛋白 (human CD20) (human, UniProt P11836 1-297, limits assumed).
T1 construct: its title names human CD20; also called 抗原
T1 sequence (looked up): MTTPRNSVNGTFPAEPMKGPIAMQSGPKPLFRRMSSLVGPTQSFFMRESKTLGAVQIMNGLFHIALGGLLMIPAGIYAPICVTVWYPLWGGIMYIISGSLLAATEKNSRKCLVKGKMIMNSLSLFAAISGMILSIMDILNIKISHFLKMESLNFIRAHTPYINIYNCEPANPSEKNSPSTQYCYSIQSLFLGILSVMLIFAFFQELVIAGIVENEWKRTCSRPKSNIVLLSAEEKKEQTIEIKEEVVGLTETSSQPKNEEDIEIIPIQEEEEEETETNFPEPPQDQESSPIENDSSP
The test is described as follows: SPR (CM5 chip), antibody captured by anti-human capture antibody, antigen as analyte.

In general, Kd refers to a measure of binding affinity in units of concentration. A lower Kd goes with a tighter complex. By koff is commonly meant the rate constant with which the complex falls apart. Lower therefore signals slow dissociation. As a reminder, the kon is a measure of how fast the partners come together.

B1: hG7B2-IgG1 (antibody, V domains shown)
VH: QVQLVQSGGEVKKPGASVKVSCKTSGYRFTSGKNAVWVRQAPGQGLEWMGGIATGKFNLSVDLQGRLTLTTDTSTSTAYMELGSLRPDDTAVYYCTRDIRLYAGDYWGQGTLVTVSS
VL: DIVLTQPASVSGSPGQSVTISCSAIDGNCFNKVSWYQQHPGKAPKLMIYDASKRCTGIPERFSGSNSGNTATLTISRVEAGDEADYYCQAASKDAPITTFGRGTKLTVL
The molecule B1 had a Kd of 0.215 nM, a dissociation rate constant (koff) of 5.31e-05 s⁻¹ and a kon of 246000 M⁻¹ s⁻¹.

B2: Rituximab (antibody, V domains shown)
VH: QVQLQQPGAELVKPGASVKMSCKASGYTFTSYNMHWVKQTPGRGLEWIGAIYPGNGDTSYNQKFKGKATLTADKSSSTAYMQLSSLTSEDSAVYYCARSTYYGGDWYFNVWGAGTTVTVSA
VL: QIVLSQSPAILSASPGEKVTMTCRASSSVSYIHWFQQKPGSSPKPWIYATSNLASGVPVRFSGSGSGTSYSLTISRVEAEDAATYYCQQWTSNPPTFGGGTKLEIK
As to B2, the Kd is 5.46 nM, the koff stood at 0.000345 s⁻¹ and the kon amounted to 63100 M⁻¹ s⁻¹.

Source of the values: CN112521508A (BEIJING GUANGWEI BIOTECHNOLOGY CO LTD, dated 2021).
